# Assay results: publication PMC8887654 (ACS infectious diseases, 2022)
# Several values for one entry are separate records, joined by “and”; a condition that tells them apart may be missing. Equal entries are not always repeated.
# Tests used:
# BEAS-2B cells = details: human
# subgroup 2b PLpros = experiment: PLpro inhibition IC50, text summary over all three PLpros; assay type: biochemical; details: read-out: IC50 values; text summary for the most potent inhibitors
# RPTEC = details: human
# BtSCoV-Rf1.2004 PLpro = assay type: biochemical
# MERS PLpro = details: cited from earlier work
# MHV PLP2 = details: cited from earlier work
# SARS PLpro = details: cited from earlier work
# SARS-2 PLpro = details: cited from earlier work
Molecule,CC50 relative to IC50 (BEAS-2B cells),IC50 (subgroup 2b PLpros) [µM],CC50 relative to IC50 (RPTEC),Kcat (BtSCoV-Rf1.2004 PLpro) [s⁻¹],Km (BtSCoV-Rf1.2004 PLpro) [µM],Kcat (MERS PLpro) [s⁻¹],Km (MERS PLpro) [µM],Kcat (MHV PLP2) [s⁻¹],Km (MHV PLP2) [µM],Kcat (SARS PLpro),Km (SARS PLpro) [µM],Kcat (SARS-2 PLpro) [s⁻¹],Km (SARS-2 PLpro) [µM],observed rate (no maximum turnover calculable) (BtSCoV-Rf1.2004 PLpro) [min⁻¹]
"Cc1ccc(N)cc1C(=O)N[C@H](C)c1cccc2ccccc12 [GRL0617, 5-Amino-2-methyl-N-[(R)-1-(1-naphthyl)ethyl]benzamide]",more than five times the IC50,< 10,more than five times the IC50,,,,,,,,,,,
Ubiquitin–7-amino-4-methylcourmarin [Ub-AMC],,,,0.232 ± 0.0067,14.3 ± 0.9,0.313 ± 0.02,14.3 ± 2,0.83 ± 0.0483,1.3 ± 0.2,1.26 ± 0.135 s⁻¹,50.6 ± 7.4,0.167 ± 0.013,7.9 ± 1.4,
human ISG15-7-amino-4-methylcourmarin [ISG15-AMC],,,,,,0.543 ± 0.03,3.3 ± 0.5,,,7.27 s⁻¹ and 7.27 ± 0.667 s⁻¹,15.1 ± 2.4,0.667 ± 0.03,3.9 ± 0.5,595
